{"source": "paper PMC7150849", "key": {"[1]": {"biological_target": "CHR-derived peptide C34 of HIV-1 92RW020 gp41 with the N126K mutation (HIV-1 92RW020)", "experiment": "circular dichroism spectroscopy"}, "[2]": {"biological_target": "CHR-derived peptide C34 of HIV-1 92RW020 gp41 (HIV-1 92RW020)", "experiment": "ITC"}, "[3]": {"biological_target": "CHR-derived peptide C34 of HIV-1 92RW020 gp41 with the N126K mutation (HIV-1 92RW020)", "experiment": "ITC"}, "[4]": {"biological_target": "CHR-derived peptide C34 of HIV-1 JRFL gp41 with the N126K mutation (HIV-1 JRFL)", "experiment": "circular dichroism spectroscopy"}, "[5]": {"biological_target": "CHR-derived peptide C34 of HIV-1 JRFL gp41 (HIV-1 JRFL)", "experiment": "ITC"}, "[6]": {"biological_target": "CHR-derived peptide C34 of HIV-1 JRFL gp41 with the N126K mutation (HIV-1 JRFL)", "experiment": "ITC"}, "[7]": {"biological_target": "CHR-derived peptide C34 of HIV-1 NL4-3 gp41 with the N126K mutation (HIV-1 NL4-3)", "experiment": "circular dichroism spectroscopy"}, "[8]": {"biological_target": "CHR-derived peptide C34 of HIV-1 NL4-3 gp41 with the N126K mutation (HIV-1 NL4-3)", "experiment": "ITC"}}, "data": [{"substance": "NHR-derived peptide N36 of HIV-1 92RW020 gp41", "values": [{"measurement": "Tm of the complex", "setting": "[1]", "value": 62.7, "unit": "°C"}, {"measurement": "Ka", "setting": "[2]", "value": 940000, "unit": "M⁻¹"}, {"measurement": "dH", "setting": "[2]", "value": -49, "unit": "kcal/mol"}, {"measurement": "stoichiometry N", "setting": "[2]", "value": 1.4, "unit": "Site"}, {"measurement": "Ka", "setting": "[3]", "value": "1.3e+06", "unit": "M⁻¹"}, {"measurement": "dH", "setting": "[3]", "value": -55, "unit": "kcal/mol"}, {"measurement": "stoichiometry N", "setting": "[3]", "value": 1, "unit": "Site"}]}, {"substance": "NHR-derived peptide N36 of HIV-1 JRFL gp41", "values": [{"measurement": "Tm of the complex", "setting": "[4]", "value": 62.7, "unit": "°C"}, {"measurement": "Ka", "setting": "[5]", "value": 430000, "unit": "M⁻¹"}, {"measurement": "dH", "setting": "[5]", "value": -44, "unit": "kcal/mol"}, {"measurement": "stoichiometry N", "setting": "[5]", "value": 1.3, "unit": "Site"}, {"measurement": "Ka", "setting": "[6]", "value": "1.2e+06", "unit": "M⁻¹"}, {"measurement": "dH", "setting": "[6]", "value": -35, "unit": "kcal/mol"}, {"measurement": "stoichiometry N", "setting": "[6]", "value": 1.4, "unit": "Site"}]}, {"substance": "NHR-derived peptide N36 of HIV-1 NL4-3 gp41 (from UniProt P04578 546-581)", "values": [{"measurement": "Tm of the complex", "setting": "[7]", "value": 68.5, "unit": "°C"}, {"measurement": "Ka", "setting": "[8]", "value": "1.9e+06", "unit": "M⁻¹"}, {"measurement": "dH", "setting": "[8]", "value": -38, "unit": "kcal/mol"}, {"measurement": "stoichiometry N", "setting": "[8]", "value": 1.2, "unit": "Site"}]}]}
